Experimental data taken from paper doi:10.1101/2025.11.18.689095 (bioRxiv, 2025).

B1: K118A: K118A mutation in hTom70 (protein)
chain: MNSLDRAQAAANKGNKYFKAGKYEQAIQCYTEAISLCPTEKNVDLSTFYQNRAAAFEQLQKWKEVAQDCTKAVELNPKYVKALFRRAKAHEKLDNKKECLEDVTAVCILEGFQNQQSMLLADKVLKLLGKEKAKEKYKNREPLMPSPQFIKSYFSSFTDDIISQPMLKGEKSDEDKDKEGEALEVKENSGYLKAKQYMEEENYDKIISECSKEIDAEGKYMAEALLLRATFYLLIGNANAAKPDLDKVISLKEANVKLRANALIKRGSMYMQQQQPLLSTQDFNMAADIDPQNADVYHHRGQLKILLDQVEEAVADFDECIRLRPESALAQAQKCFALYRQAYTGNNSSQIQAAMKGFEEVIKKFPRCAEGYALYAQALTDQQQFGKADEMYDKCIDLEPDNATTYVHKGLLQLQWKQDLDRGLELISKAIEIDNKCDFAYETMGTIEVQRGNMEKAIDMFNKAINLAKSEMEMAHLYSLCDAAHAQTEVAKKYGLKPPTL
B2: N158A: N158A mutation in hTom70 (protein)
chain: MNSLDRAQAAKNKGNKYFKAGKYEQAIQCYTEAISLCPTEKNVDLSTFYQARAAAFEQLQKWKEVAQDCTKAVELNPKYVKALFRRAKAHEKLDNKKECLEDVTAVCILEGFQNQQSMLLADKVLKLLGKEKAKEKYKNREPLMPSPQFIKSYFSSFTDDIISQPMLKGEKSDEDKDKEGEALEVKENSGYLKAKQYMEEENYDKIISECSKEIDAEGKYMAEALLLRATFYLLIGNANAAKPDLDKVISLKEANVKLRANALIKRGSMYMQQQQPLLSTQDFNMAADIDPQNADVYHHRGQLKILLDQVEEAVADFDECIRLRPESALAQAQKCFALYRQAYTGNNSSQIQAAMKGFEEVIKKFPRCAEGYALYAQALTDQQQFGKADEMYDKCIDLEPDNATTYVHKGLLQLQWKQDLDRGLELISKAIEIDNKCDFAYETMGTIEVQRGNMEKAIDMFNKAINLAKSEMEMAHLYSLCDAAHAQTEVAKKYGLKPPTL
B3: K188A: K188A mutation in Tom70 (protein)
chain: MNSLDRAQAAKNKGNKYFKAGKYEQAIQCYTEAISLCPTEKNVDLSTFYQNRAAAFEQLQKWKEVAQDCTKAVELNPKYVAALFRRAKAHEKLDNKKECLEDVTAVCILEGFQNQQSMLLADKVLKLLGKEKAKEKYKNREPLMPSPQFIKSYFSSFTDDIISQPMLKGEKSDEDKDKEGEALEVKENSGYLKAKQYMEEENYDKIISECSKEIDAEGKYMAEALLLRATFYLLIGNANAAKPDLDKVISLKEANVKLRANALIKRGSMYMQQQQPLLSTQDFNMAADIDPQNADVYHHRGQLKILLDQVEEAVADFDECIRLRPESALAQAQKCFALYRQAYTGNNSSQIQAAMKGFEEVIKKFPRCAEGYALYAQALTDQQQFGKADEMYDKCIDLEPDNATTYVHKGLLQLQWKQDLDRGLELISKAIEIDNKCDFAYETMGTIEVQRGNMEKAIDMFNKAINLAKSEMEMAHLYSLCDAAHAQTEVAKKYGLKPPTL
B4: R192A: R192A mutation in Tom70 (protein)
chain: MNSLDRAQAAKNKGNKYFKAGKYEQAIQCYTEAISLCPTEKNVDLSTFYQNRAAAFEQLQKWKEVAQDCTKAVELNPKYVKALFARAKAHEKLDNKKECLEDVTAVCILEGFQNQQSMLLADKVLKLLGKEKAKEKYKNREPLMPSPQFIKSYFSSFTDDIISQPMLKGEKSDEDKDKEGEALEVKENSGYLKAKQYMEEENYDKIISECSKEIDAEGKYMAEALLLRATFYLLIGNANAAKPDLDKVISLKEANVKLRANALIKRGSMYMQQQQPLLSTQDFNMAADIDPQNADVYHHRGQLKILLDQVEEAVADFDECIRLRPESALAQAQKCFALYRQAYTGNNSSQIQAAMKGFEEVIKKFPRCAEGYALYAQALTDQQQFGKADEMYDKCIDLEPDNATTYVHKGLLQLQWKQDLDRGLELISKAIEIDNKCDFAYETMGTIEVQRGNMEKAIDMFNKAINLAKSEMEMAHLYSLCDAAHAQTEVAKKYGLKPPTL

The molecules below were run on biotinylated full-length Hsp90 (assay: BLI, Tom70 mutants binding to biotinylated full-length Hsp90). Conditions: biotinylated full-length Hsp90 immobilized, Tom70 40 µM, Fig S7B.
Set-up: species or system human
Description: Biotinylated Hsp90 proteins were immobilized onto streptavidin biosensor probes, and experiments were conducted in buffer containing 20 mM sodium phosphate (pH 7), 150 mM NaCl, 1% BSA, 0.6 M sucrose, and 1 mM TCEP[68]. […] To combat heterogenous binding, dissociation curves were fit with a two-phase exponential curve. Due to the association rate (kon) being too rapid to quantify, kon values were indirectly estimated by combining koff values obtained from BLI with KD values determined by ITC ( kon=koffBLI/KDITC ). All data are corrected for non-specific binding. Error is given as the standard deviation of at least two measurements.
Supplementary Figure 7: (A) Interacting residues between Tom70 and Hsp90EEVD peptide. (B) BLI sensorgrams of biotinylated full-length Hsp90 assayed to Tom70 mutants. WT refers to “wild-type” Tom70. All Tom70 concentrations are at 40 µM. Dotted line demarcates the beginning of the dissociation phase. (C-D) ITC thermograms and isotherms for the interaction of Tom70 to an (C) amidated Hsp90EEVD peptide and a (D) Hsp90EQVD peptide. N.D. stands for “not-detected” due to the lack of sufficient heat generated.
(1 picture or pasted object on this page, not shown here)
With B1 the “binding of Tom70 mutant to Hsp90” value was “eliminated binding”. B2 was tested, and the “binding of Tom70 mutant to Hsp90” value was “eliminated binding”. B3 was tested, and the “binding of Tom70 mutant to Hsp90” value was “abrogated binding”. With B4 the “binding of Tom70 mutant to Hsp90” value was “abrogated binding”.
